{
  "source": "the nanobody polyreactivity screen of Harvey et al. (2022)",
  "data": [
    {"assay": "yeast display, Sf9 membrane polyspecificity reagent, FACS + sequencing; frameworks hold sequencing errors", "outline": "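Sorting gates, low and high (top ~1%), were placed on anti-HA fluorescence to track expression and on streptavidin fluorescence to track reagent binding. A clone's polyreactivity label is taken from the gate it came out of. The reagent was 10% biotinylated, detergent-solubilized Sf9 membrane, applied for 1 hour at 4 °C to galactose-induced yeast display cells.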", "values": [
      {"sequence": "QVQLVESGGGLVQAGGSLRLSCAASGSTFYVYAMGWYRQAPGKERELVAAIDGSTGSTYYADSVKGRFTISRDNAKNTVYLQMNSLKPEDTAVYYCNAESIPPYSITKFDYWGQGTQGTVSS", "polyreactivity (PSR sort gate)": "low polyreactivity"},
      {"sequence": "QVQLVESGGGLVQAGGSLRLSCAASGSTFYVYAMGWYRQAPGKERELVAAITRGGSTYYADSVKGRFTISRDNAKNTVYLQMNSLKPEDTAVYYCAKYLSGAADLVPEYDYWGQGTQVTVSS", "polyreactivity (PSR sort gate)": "low polyreactivity"},
      {"sequence": "QVQLVESGGGLVQAGGSLRLSCAASGSTFYVYAMGWYRQAPGNERELVAAITSGGSTNYADSVKGRFTISRDNAKNTVYLQMNSLKPEDTAVYYCAAQGRVWDSYGYEYVQEVTRDYWGQGTQVTVSS", "polyreactivity (PSR sort gate)": "low polyreactivity"},
      {"sequence": "QVQLVESGGGLVQAGGSLRLSCAASGSTFYWNAMGWYRQAPGKERELVAAIRRSSDRTYYADSVKGRFTISRDNAKNTVYLQMNSLKPEDTAVYYCAADAYYTYRLDYWGQGTQVTVSS", "polyreactivity (PSR sort gate)": "high polyreactivity"},
      {"sequence": "QVQLVESGGGLVQAGGSLRLSCAASGSTFYWYAMGGYRQAPGKERELVAAISGSGGRTYYADSVKGRFTISRDNAKNTVYLQMYSLKPEDTAGYYCAADTKFYNYYYWGQGTQVTVSS", "polyreactivity (PSR sort gate)": "high polyreactivity"},
      {"sequence": "QVQLVESGGGLVQAGGSLRLSCAASGSTFYWYAMGWYIQAPGKERELGAAIRWSGDRTYYADSVKGLFTISRDNAKNTVYLQMNSLKPEDTAVYYCAAGKGRPVGGRAYYYWGQGTQVTVSS", "polyreactivity (PSR sort gate)": "high polyreactivity"},
      {"sequence": "QVQLVESGGGLVQAGGSLRLSCAASGSTFYWYAMGWYRQAPGKERELVAAISRSSGSTYYADSVKGRFTISRDNAKNSVYLQMNSLKPEDTAVYYCAADYYLRSFVWTAYDSWGQGTQVTVSS", "polyreactivity (PSR sort gate)": "high polyreactivity"},
      {"sequence": "QVQLVESGGGLVQAGGSLRLSCAASGSTFYWYAMGWYRQAPGKERELVAAITYSSGRTYYADSVKGRFTISRDNAKNTVYLQMNSLKPEDTAVYYCGWSALNGYDYWGQGTQVTVSS", "polyreactivity (PSR sort gate)": "high polyreactivity"},
      {"sequence": "QVQLVESGGGLVQAGGSLRLSCAASGSTFYWYAMGWYRQAPGKERELVASISWSGGRTYYADSVKGRFTISRDTAKNTVYLQMNSLKPEDTAVYYCAARRKGRYYYWGQGTQVTVSS", "polyreactivity (PSR sort gate)": "high polyreactivity"},
      {"sequence": "QVQLVESGGGLVQAGGSLRLSCAASGSTFYWYAMGWYRQAPGKERELVASITRSGVRTYYADSVKGRFTISRDNAKNTVYLQMNSLKPEDTAVYYCAAERYYFPRSYRYGYWGQGTQVTVSS", "polyreactivity (PSR sort gate)": "low polyreactivity"},
      {"sequence": "QVQLVESGGGLVQAGGSLRLSCAASGSTFYYNAMGWYRQAHGKERELVARISRSGGSTYADSVKGRFTISRDNAKNTVYLQMNSLKPEDTAVYYCNADAYGTPEFTSYAVRYDYWGQGTQVTVSS", "polyreactivity (PSR sort gate)": "low polyreactivity"},
      {"sequence": "QVQLVESGGGLVQAGGSLRLSCAASGSTFYYNAMGWYRQAPGKERELFAAITFTGGSTYADSVKGRFTISRDNAKNTVYLQMNSLKPEDTAVFYCAATIQGHDYLGSGYDYWGQGTQVTVSS", "polyreactivity (PSR sort gate)": "low polyreactivity"},
      {"sequence": "QVQLVESGGGLVQAGGSLRLSCAASGSTFYYNAMGWYRQAPGKERELVAAISRSGGRTYYADSVKGRFTISRDNAKNTVYLQMNSLKPEDTAVYYCAADAPGHEYYYWGQGTQVTVSS", "polyreactivity (PSR sort gate)": "high polyreactivity"},
      {"sequence": "QVQLVESGGGLVQAGGSLRLSCAASGSTFYYNAMGWYRQAPGKERELVAAITFTGGSTYADSVKGRFSISRDNAKNTVYLQMNSLKPEDTAVYYCAATIQGHDYLGTGYDYWGQGTQVTVSS", "polyreactivity (PSR sort gate)": "low polyreactivity"},
      {"sequence": "QVQLVESGGGLVQAGGSLRLSCAASGSTFYYNAMGWYRQAPGKERELVAAITFTGGSTYADSVKGRFTISRDNAKNTVYLQMNSLKPEDTAVFYCAATIQGHDYLGTGYDYWGQGTQVTVSS", "polyreactivity (PSR sort gate)": "low polyreactivity"},
      {"sequence": "QVQLVESGGGLVQAGGSLRLSCAASGSTFYYNAMGWYRQAPGKERELVAGITSSGGSTYYADSVKGRFTISRDNAKNTVYLQMNSLKPEDTAVYYCAASYKRSRRGYYWGQGTQVTVSS", "polyreactivity (PSR sort gate)": "high polyreactivity"},
      {"sequence": "QVQLVESGGGLVQAGGSLRLSCAASGSTFYYNAMGWYRQAPGKERELVARISRSGGSTYADSVKGRVTISRDNAKNTVYLQMNSLKPEDTAVYYCNADAYGTPEFTSYAVRYDYWGQGTQVTVSS", "polyreactivity (PSR sort gate)": "low polyreactivity"},
      {"sequence": "QVQLVESGGGLVQAGGSLRLSCAASGSTFYYVNAMGWYRQAPGKEREFVAAISSSSGSTYYADSVKGRFTISRDNAKNTVYLQMNSLKPEDTAVYYCAKVPRYYKSYYWGQGTQVTVSS", "polyreactivity (PSR sort gate)": "high polyreactivity"},
      {"sequence": "QVQLVESGGGLVQAGGSLRLSCAASGSTFYYYALGWYRQAPGKERELVASITRGGGSTYYADSVKGRFTISRDNAKNTVYLQMNSLKPEDTAVYYCAARGRFRKYDYWGQGTQVTVSS", "polyreactivity (PSR sort gate)": "high polyreactivity"},
      {"sequence": "QVQLVESGGGLVQAGGSLRLSCAASGSTFYYYAMGWSRQAPGKERELVATITSGGSTNYADSVKGRFTISRDNAKNTVYLQMNSLKPEDTAVYYCNADDGYSVWGYDYWGQGTQVTVSS", "polyreactivity (PSR sort gate)": "low polyreactivity"},
      {"sequence": "QVQLVESGGGLVQAGGSLRLSCAASGSTFYYYAMGWYRPAPGKERELVATIDSGTSTYYADSVKGRFTISRDNAKNTVYFQMNSLKPEDTAVYYCAAKTWSWSYGYNYWGQGTLVTVSS", "polyreactivity (PSR sort gate)": "low polyreactivity"},
      {"sequence": "QVQLVESGGGLVQAGGSLRLSCAASGSTFYYYAMGWYRQAPGKEREFVAAITWSGGSTYYADSVKGRFTISRDNAKNTVYLQMNSLKPEDTAVYYCAKDQRYYYYGGGDYWGQGTQVTVSS", "polyreactivity (PSR sort gate)": "low polyreactivity"},
      {"sequence": "QVQLVESGGGLVQAGGSLRLSCAASGSTFYYYAMGWYRQAPGKERELVAAINDSGDRTYYADSVKGRFTISRDNAKNNVYLQMNSLKPEDTAVYYCAADLVSLDPEYDYWGQGTQVTVSS", "polyreactivity (PSR sort gate)": "low polyreactivity"},
      {"sequence": "QVQLVESGGGLVQAGGSLRLSCAASGSTFYYYAMGWYRQAPGKERELVAAINSGGRTNYADSVKGRFTISRDNAKNTVYLQMNSLKPEDTAVYSCARDGYHRDYDYWGQGTQVTVSS", "polyreactivity (PSR sort gate)": "low polyreactivity"},
      {"sequence": "QVQLVESGGGLVQAGGSLRLSCAASGSTFYYYAMGWYRQAPGKERELVAAITISGGSTYADSVKGRFTISRDNAKNTVYLQMNSLKPEDTALYYCAAYSGVGYLWFDYWGQGTQVTVSS", "polyreactivity (PSR sort gate)": "low polyreactivity"},
      {"sequence": "QVQLVESGGGLVQAGGSLRLSCAASGSTFYYYAMGWYRQAPGKERELVAAITNVTSTYYADSVKGRFTISRDNAKNTVYLQMNSLKPEDTAGYYCAAPDPSTEVTYDYWGQGTQVTVSS", "polyreactivity (PSR sort gate)": "low polyreactivity"},
      {"sequence": "QVQLVESGGGLVQAGGSLRLSCAASGSTFYYYAMGWYRQAPGKERELVASITTGGGSTYYADSVKGRFTISRDNAKNTVYLQMNSLKPEDTAVYYCAAALAYYYWWYDYWGQGTQVTVSS", "polyreactivity (PSR sort gate)": "low polyreactivity"},
      {"sequence": "QVQLVESGGGLVQAGGSLRLSCAASGSTFYYYAMGWYRQAPGKERELVASITTGGGSTYYADSVKGRFTISRDYAKNTVYLQMNSLKPEDTAVYYCAAALAYYYWWYDYWGQGTQVTVSS", "polyreactivity (PSR sort gate)": "low polyreactivity"},
      {"sequence": "QVQLVESGGGLVQAGGSLRLSCAASGSTFYYYAMGWYRQAPGTAREWVAAISYSGGRTYYADSVKGRFTISRDHAKNTDDIQMNSLKPEYTAVYYCATGQPILALRYAYGYWGQATQVTVSS", "polyreactivity (PSR sort gate)": "low polyreactivity"},
      {"sequence": "QVQLVESGGGLVQAGGSLRLSCAASGSTFYYYARGWYRQAPGKERELVAAIDRDDRTNYADSVKGRFTISRDNAKNTVYLQMNSLKAEDTAVYYCAAVEIYEYDYWGQGTQVTVSS", "polyreactivity (PSR sort gate)": "low polyreactivity"},
      {"sequence": "QVQLVESGGGLVQAGGSLRLSCAASGSTFYYYTMGWYRQAPGKERELVAAISGSGSRTYYADSVKGRFTISRDNAKNTVYLQMNSLNPEDTGVYYCAAKRSYPYGSGYWGQGTQVTVSS", "polyreactivity (PSR sort gate)": "high polyreactivity"},
      {"sequence": "QVQLVESGGGLVQAGGSLRLSCAASGSTFYYYTMGWYRQAPGKERELVARITRSGGTTYYADSVKGRFTISRDNAKNTVYLQMNSLKPEDTAVYYCAARRYGYTSITWYDYWGQGTLVTVSS", "polyreactivity (PSR sort gate)": "high polyreactivity"},
      {"sequence": "QVQLVESGGGLVQAGGSLRLSCAASGSTIDPYGMGWYRQAPGKERELVAAITSSGRTNYADSVKGRFTISRDNAKNTVYLQMNSLKPEDTAVYYCNVQTYVELRLDYWGQGTQVTVSS", "polyreactivity (PSR sort gate)": "low polyreactivity"},
      {"sequence": "QVQLVESGGGLVQAGGSLRLSCAASGSTIDYYAMGLYRQAPGKERELVAGISASGGSTYYADSEKGRFTISRDNAKNTVYLQMNSLKPEDTAVYYCASYYKPPGYDYWGQGTQVTVSS", "polyreactivity (PSR sort gate)": "low polyreactivity"},
      {"sequence": "QVQLVESGGGLVQAGGSLRLSCAASGSTIERYAMGWYRPAPGKERELVAAIRWSGGSTYYADSVKGRFTISRDNAKNTVYLQMNSLKPEDTAVYYCAASRSNADWFDSLGQGTQVTVSS", "polyreactivity (PSR sort gate)": "high polyreactivity"},
      {"sequence": "QVQLVESGGGLVQAGGSLRLSCAASGSTIFENVMGWYRQAPGKEREFVAAINTSGGSTYYADSVKGRFTISRDNAKNTVYLQMNSLKPEDTAVYYCARDSYWEMDYWGQGTQVTVSS", "polyreactivity (PSR sort gate)": "low polyreactivity"},
      {"sequence": "QVQLVESGGGLVQAGGSLRLSCAASGSTIGDNAMGWYRQAPGKERELVASISWSGASTYYADSVKGRFTISRDNAKNTVYLQMNSLKPEDTAVYYCAVYYSYYSHLYHLLFSYWGQGTQVTVSS", "polyreactivity (PSR sort gate)": "low polyreactivity"},
      {"sequence": "QVQLVESGGGLVQAGGSLRLSCAASGSTIGPYAMGWYRQAPGKERELVAAITESGDSTYYADSVKGRFTISRDTAKNTVYLQMNSLKPEDTAVYYCAADVYGDKMDYWGQGTQVTVSS", "polyreactivity (PSR sort gate)": "low polyreactivity"},
      {"sequence": "QVQLVESGGGLVQAGGSLRLSCAASGSTIGYYAMGWYRQAPGTERELVAAITRSGGSTSYADSVKGRFTISRDNAKNTVYLQMNSLKPEDTAVYYCAARFYRPYYARQGYNYWGQGTQVTVSS", "polyreactivity (PSR sort gate)": "high polyreactivity"},
      {"sequence": "QVQLVESGGGLVQAGGSLRLSCAASGSTIIRNAMGWSRQAPGKERELVAAISTSGGRTHYADSVKGRFTISRDNAKNTVYLQMNSLKPEDTAVYYCATRGKGHYYYWGQGTQVTVSS", "polyreactivity (PSR sort gate)": "high polyreactivity"},
      {"sequence": "QVQLVESGGGLVQAGGSLRLSCAASGSTIKGYDMGWYRQAPGKERELVAAIDSGGSTYYADSVKGRFTISRDNAKNTVYLQMNSLKPEDTAVFYCAAERVSLYWVIFGYWGQGTQVTVSS", "polyreactivity (PSR sort gate)": "low polyreactivity"},
      {"sequence": "QVQLVESGGGLVQAGGSLRLSCAASGSTILSYGMGWYRQAPGKERELVAGISRGGITYYADSVKGRFTISRDNAKNNVYLQMNSLKPEDTAVYYCNVGLYSYYYRSRPRDYEYWGQGTQVTVSS", "polyreactivity (PSR sort gate)": "high polyreactivity"},
      {"sequence": "QVQLVESGGGLVQAGGSLRLSCAASGSTINSYAMGWYRQAPGKERELVAAITWIGGNTYYADSVKGRFTISRDNAKNTVYLQMNSLKPEDTAVYYCAADEYFEYYYWGQGTQVTVSS", "polyreactivity (PSR sort gate)": "low polyreactivity"}
    ]}
  ]
}
